Test results: patent publication US20190324022, “METHODS AND SYSTEMS FOR IDENTIFYING CANDIDATE NUCLEIC ACID AGENT” (APTITUDE MEDICAL SYSTEMS, INC., published 2019)

How the values were obtained:
TNF-alpha [1] = target: T1, TNF-alpha (Homo sapiens, UniProt P01375 P01375:77-233); experiment: flow; PBSMCT buffer, room temperature, 3 h; settings: tags: biotinylated; R&D Systems; chain copies: 3 (inferred)
Experimental: (§1) MyOne carboxylic acid magnetic particles were coated with amino-modified candidate nucleic acid agents S01, B01, or VR11 (a previously published TNF-α candidate nucleic acid agent), or with mAb11 antibody (a commercial TNF-α antibody). […] The unbound TNF-α was washed away with PBSMCT, after which streptavidin-conjugated Alexa Fluor 488 was introduced and incubated for 15 minutes to label the bound TNF-α. The particles were washed with PBSMCT and median fluorescence intensities were quantified via FACS.
(§2) Sequences and relative affinities of all candidate nucleic acid agents are shown in the methods above.

TNF-alpha [2] = target: T1, TNF-alpha; experiment: flow; PBSMCT buffer (2.5 mM MgCl2, 1 mM CaCl2), room temperature, 3 h; 0.27 nM in serum; settings: tags: biotinylated; R&D Systems; chain copies: 3 (inferred)
Experimental: as §1, §2

[3] = target: NGAL (Neutrophil Gelatinase-Associated Lipocalin) (Homo sapiens, UniProt P80188 P80188:21-198); experiment: flow; PBSMCT buffer; 1.28 nM in 10% human serum; settings: tags: His-Tag; R&D Systems
Chain of NGAL (Neutrophil Gelatinase-Associated Lipocalin) (P80188 21-198, one chain of several): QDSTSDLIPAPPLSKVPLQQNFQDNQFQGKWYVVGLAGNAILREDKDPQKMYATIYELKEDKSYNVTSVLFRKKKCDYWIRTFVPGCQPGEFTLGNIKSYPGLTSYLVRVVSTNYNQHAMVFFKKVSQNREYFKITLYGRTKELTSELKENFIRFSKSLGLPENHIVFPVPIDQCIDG

[4] = target: T2, HRP-2 (Histidine-Rich Protein 2) (UniProt P05227 P05227:22-332); experiment: flow; PBSMCT buffer; 0.124 nM in 10% human serum; settings: tags: His-Tag; Fitzgerald Industries International
T2 sequence: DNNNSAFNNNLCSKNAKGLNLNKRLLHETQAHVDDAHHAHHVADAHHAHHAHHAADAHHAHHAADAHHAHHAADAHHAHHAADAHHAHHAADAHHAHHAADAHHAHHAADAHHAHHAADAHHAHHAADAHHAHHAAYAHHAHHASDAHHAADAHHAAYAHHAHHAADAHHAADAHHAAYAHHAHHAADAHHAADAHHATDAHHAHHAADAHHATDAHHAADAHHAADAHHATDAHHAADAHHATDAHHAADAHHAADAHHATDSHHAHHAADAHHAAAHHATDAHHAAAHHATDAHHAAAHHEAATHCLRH

T1 sequence (P01375 77-233, one chain of several): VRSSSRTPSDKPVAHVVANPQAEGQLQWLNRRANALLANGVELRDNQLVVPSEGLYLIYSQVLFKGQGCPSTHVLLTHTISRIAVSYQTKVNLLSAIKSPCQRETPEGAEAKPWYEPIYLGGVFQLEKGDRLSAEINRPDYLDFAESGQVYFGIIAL

B1: B01 (ssDNA)
DNA: ATCCAGAGTGACGCAGCAGGTTAAGGTGTAGGTCCGGGTGGGGGGGTGGGTTGGGGGACTGGTGGACACGGTGGCTTAGT
modifications: 5'-amino, coupled to magnetic particles
For B1, which Kd (TNF-alpha [1]) is on record?
The Kd was 0.35 nM.

B2: S01 (ssDNA)
DNA: ATCCAGAGTGACGCAGCATGCTTAAGGGGGGGGCGGGTTAAGGGAGTGGGGAGGGAGCTGGTGTGGACACGGTGGCTTAGT
modifications: 5'-amino, coupled to magnetic particles
B2 was tested. Which Kd (TNF-alpha [2]) did it give?
Its Kd is 0.19 nM.

B3: NGAL-05 (ssDNA)
DNA: GAATTCCGCCCTCGTCCCATCTCGGCTTGGTATGGCGGAGCTGGATAGTATAGTCGGAACACCAACCGAGAACGGAATTC
modifications: immobilized on magnetic particles
B3 was tested. Which Kd [3] did it give?
The Kd was 0.92 nM.

B4: HRP-2-702 (ssDNA)
DNA: ATCCAGAGTGACGCAGCATTAAATAGGGGTTTGGCTTTGGGTCTGGCATATAGGAACAAGTTTGGACACGGTGGCTTAGT
modifications: immobilized on magnetic particles
For B4, which Kd [4] is on record?
Its Kd is 0.128 nM.
